Source: patent publication US20210060157A1 (published 2021)
Numbering of substitutions follows the chain as printed. “And” between values parts separate entries of the source, which are not always exact repeats. Equal values may be shown once.

B1: rat anti-human C6 monoclonal antibody 7E5 (antibody, V domains shown)
VH: EVQLVESDGGLVQPGGSLKLSCVASGFSFSDYYMAWVRQGPTKGLEWVATINYDGSSTYYRESVKGRFTISRDNAKRTLYLQMDSLRSEDTATYYCSRPSTEALFAYWGHGTLVTVSS
VL: DVVLTQTPSTLSATIGQSVSISCRSSQSLLNDVGNTYLYWYLQRPGQSPQLLIYLVSDLGSGVPNRFSGSGSGTDFTLKISGVEAEDLGIYYCMQASHAPYTFGAGTNLELK
notes: Whole antibody (150 kDa analyte in SPR) from a rat hybridoma; also called 7E5 mAb; supernatant #11
B2: humanized 7E5 Fab 7F06 (Fab, V domains shown)
VH: B1 VH with D8G, V23A, S28T, S30R, T42G, R77N, T78S, S88A, T93V, S97A
VL: B1 VL with S9L, A13V, I15P, S18P, R44K, G82R, L88V, I90V, N108R
notes: also called 7F6
B3: humanized 7E5 Fab 7E12 (Fab, V domains shown)
VH: B1 VH with V23A, S28T, T42G, R77N, D84N, S88A, S97A
VL: B1 VL with A13V, I15P, S18P, V19A, R44K, G82R, L88V, A105Q, L111I
B4: humanized 7E5 Fab 7F02 (Fab, V domains shown)
VH: B1 VH with D8G, V23A, S28T, T42G, R77N, T78S, D84N, T93V, S97A
VL: B1 VL with L4M, I15P, V19A, R44K, G82R, L88V, N108R
notes: also called 7F2
B5: humanized 7E5 Fab 7F11 (Fab, V domains shown)
VH: B1 VH with V23A, S28T, R77N, D84N, S88A, T93V
VL: B1 VL with A13V, I15P, S18P, R44K, L88V, I90V, N108R, L111I
B6: humanized 7E5 Fab 8F07 (Fab, V domains shown)
VH: B1 VH with D8G, K19R, V23A, T42G, R77N, D84N, S97A
VL: B1 VL with S9L, A13V, I15P, R44K, N65D, L88V, I90V, N108K, L111I
notes: also called 8F7
B7: humanized 7E5 Fab 8G09 (Fab, V domains shown)
VH: B1 VH with K19R, S28T, G40A, T42G, S88A, T93V, S97A, H110Q
VL: B1 VL with V2I, S9L, A13V, I15P, R44K, G82R, L88V, I90V, N108R, L111I
B8: humanized 7E5 Fab 7E11 (Fab, V domains shown)
VH: B1 VH with D8G, K19R, S28T, G40A, T42G, R77N, S88A, T93V, S97A, H110Q
VL: B1 VL with V2I, S9L, T10S, I15P, N65D, G82R, L88V, I90V, L111I

Assays:
[1] = molecular target: T1, human complement component C6 (human, UniProt P13671 22-934); assay: SPR, Biacore 2000, C6 amine-coupled to CM5 chip, antibody as analyte, 25 C, 1:1 model
T1 construct: Protein was purified from human serum (113 kDa); biotinylated in the Fab ELISAs; also called human C6; hC6
Experimental: (§1) Binding Kinetics: To investigate kinetics of 7E5 binding to C6, surface plasmon resonance measurement in a BIACORE 2000 (GE Healthcare) equipped with a research-grade CM5 sensor chip was used. The ligand (C6, 113 kDa) was immobilized using amine-coupling chemistry. The surface of flow cell two was activated for 7 minutes with a 1:1 mixture of 0.1 M NHS (N-hydroxysuccinimide) and 0.4 M EDC (3-(N,N-dimethylamino) propyl-N-ethylcarbodiimide) at a flow rate of 5 μl/min. The ligand at a concentration of 10 μg/ml in 10 mM sodium acetate, pH 5.0, was immobilized at a density of 955 RU. The surface was blocked with a 7 minute injection of 1 M ethanolamine, pH 8.0.
(§2) To collect kinetic binding data, the analytes (anti C6-antibodies, 150 kDa) in 10 mM HEPES, 150 mM NaCl, 0.005% P20, pH 7.4, were injected over the two flow cells at a flow rate of 30 μl/min and at a temperature of 25° C. The injected concentrations differ per antibody. Data were collected at a rate of 1 Hz. The complex was allowed to associate and dissociate for 90 and 300 seconds, respectively. The surfaces were regenerated with a 10 second injection of 0.1 M HCl. Duplicate injections (in random order) of each sample and a buffer blank were flowed over the two surfaces.
(§3) The data were fit to a simple 1:1 interaction model using the global data analysis option available within BiaEvaluation 4.1 software.

[2] = molecular target: T1, human complement component C6; assay: SPR, Biacore 2000, derived from kd
Experimental: as §1, §2, §3

[3] = molecular target: T1, human complement component C6; assay: SPR, Biacore 2000
Experimental: as §1, §2, §3

[4] = molecular target: T2, peptide 420 (human); assay: alanine scan on selected peptides (peptide array)
T2 peptide: DGRQLEWGLERTRLSS
Experimental: Subsequently, an alanine scan (in which alanine is used to replace amino acids one by one) on selected peptides was performed to help pinpoint the epitope.

[5] = molecular target: T3, peptide 418 (human); assay: peptide array of overlapping 16mer C6 peptides on a membrane
T3 construct: Synthesized and spotted on a membrane (peptide array)
T3 peptide: GSCQDGRQLEWGLERT
Experimental: Peptide arrays were used to determine the epitope of 7E5 in human C6. Consecutive overlapping 16mer peptides (peptides 16 amino acids long, overlapping 14 amino acids) from the C6 protein sequence were synthesized and spotted in a grid pattern on a membrane. The membrane was then incubated with 7E5 antibody to detect which peptide was recognized by the antibody.

[6] = molecular target: T1, human complement component C6; assay: ELISA on biotinylated hC6 and Biacore 3000 off-rate screening of periplasmic extracts on immobilized hC6

T1 sequence (P13671 22-934 limits assumed): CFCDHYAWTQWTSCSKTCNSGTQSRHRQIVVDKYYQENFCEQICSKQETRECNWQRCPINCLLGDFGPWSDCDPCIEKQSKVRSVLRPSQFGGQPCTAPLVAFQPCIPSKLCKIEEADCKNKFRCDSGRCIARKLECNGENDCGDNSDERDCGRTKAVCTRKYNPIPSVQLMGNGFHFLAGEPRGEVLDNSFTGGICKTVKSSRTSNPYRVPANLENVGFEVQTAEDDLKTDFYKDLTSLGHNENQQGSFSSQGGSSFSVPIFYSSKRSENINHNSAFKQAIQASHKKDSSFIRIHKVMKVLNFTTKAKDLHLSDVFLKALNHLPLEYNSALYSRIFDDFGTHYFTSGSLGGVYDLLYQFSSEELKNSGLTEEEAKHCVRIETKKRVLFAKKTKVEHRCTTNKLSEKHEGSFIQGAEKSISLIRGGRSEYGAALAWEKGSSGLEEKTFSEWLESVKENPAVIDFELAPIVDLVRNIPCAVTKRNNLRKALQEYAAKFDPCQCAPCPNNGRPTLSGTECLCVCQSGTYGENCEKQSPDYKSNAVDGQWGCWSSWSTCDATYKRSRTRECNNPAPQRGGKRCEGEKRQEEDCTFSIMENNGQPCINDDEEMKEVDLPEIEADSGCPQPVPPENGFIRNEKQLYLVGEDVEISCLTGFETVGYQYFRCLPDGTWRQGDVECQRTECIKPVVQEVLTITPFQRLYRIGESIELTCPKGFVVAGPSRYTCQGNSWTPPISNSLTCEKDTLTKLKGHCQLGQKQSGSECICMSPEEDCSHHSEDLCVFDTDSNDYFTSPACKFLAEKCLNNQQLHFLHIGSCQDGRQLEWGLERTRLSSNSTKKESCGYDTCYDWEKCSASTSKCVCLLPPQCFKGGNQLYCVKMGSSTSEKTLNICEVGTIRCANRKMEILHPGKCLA

| binding result [6] | also measured | Binder |
| --- | --- | --- |
| – | Kd [1]: 253 pM; koff [1]: 4.27e-06 s⁻¹; kon [1]: 16900 M⁻¹ s⁻¹; t1/2 (complex half life) [2]: 45 h and 45.1 h; half-life of the 7E5-C6 complex [3]: > 40 h; binding result [4]: binds; binding result [5]: binds | B1 |
| binds | – | B2 |
| binds | – | B3 |
| binds | – | B4 |
| binds | – | B5 |
| binds | – | B6 |
| binds | – | B7 |
| binds | – | B8 |
